# B1: ADI-19000 (antibody, V domains shown)
# VH: EVQLVESGAEVKKPGASVKVSCKASGYTFTTYDINWVRQATGRGLEWMGWMTPDSGSTGYPQNFQGRVTMTRNTSISTAYMELSNLRSEDTAVYYCVQMDHCRSTSCSEGNWFDTWGQGTLVTVSS
# VL: QPGLTQPPSVSAAPRQRVTISCSGSSSNIGTNAVNWYQQLPGKAPKLLIYSDNLMPSGVSARFSGSKSGTSASLAISGLQSEDEADYYCAAWDDSLNVWVFGGGTKLTVL
# notes: full-length IgG; also called Antibody Number 348
# B2: ADI-18999 (antibody, V domains shown)
# VH: QVQLVQSGAEVKKPGSSVKVSCKASGGRFSSDAISWVRQAPGQGLEWMGGIIPIRGTPTYAQKFQGRVTIIADESTTTSYMEMSSLRSEDTAVYYCARPNYDILTGYNDAFDIWGQGTMVTVSS
# VL: QSVLTQPRSVSGSPGQSVTISCTGTSSDVGGYNYVSWYQQHPGKVPRLMIYDVSKRPSGAPDRFSGSKSGNTASLTISGLQAEDEADYYCCSYAGGLYVFGTGTKLTVL
# notes: full-length IgG
# B3: ADI-18992 (antibody, V domains shown)
# VH: QVQLVQSGAEVKKPGASVKVSCKASGYIFTGYFIHWVRQAPGQGLEWMGVINPRGGSTSYAQKFQGRVAVSRDTSTTTVYMELNSLRSEDTAVYYCARAPSHDEWVAISRNNDVVGFDAWGQGTLVTVSS
# VL: QSVLTQPPSVSGAPGQRVTISCTGGSSNIGADYDVHWYQQPPGTAPKLLIFANNNRPSGVPGRFSGSKSGTSASLAITGLQAEDEADYYCQSYDSSLSAWVFGGGTKLTVL
# notes: full-length IgG; also called Antibody Number 340
# B4: ADI-19007 (antibody, V domains shown)
# VH: QVQLVQSGGGLVQPGGSLRLSCAASGFTFSQSPMSWVRQAPGKGLEWVSGISTGGTNTYYADSVKGRFTISRDNSKNTLYLQMTSLRVGDTAVYYCAKESLDFGSGSYNWFDTWGQGTLVTVSS
# VL: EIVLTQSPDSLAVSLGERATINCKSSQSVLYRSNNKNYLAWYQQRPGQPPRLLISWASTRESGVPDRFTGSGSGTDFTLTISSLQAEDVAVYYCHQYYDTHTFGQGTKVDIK
# notes: full-length IgG
# Assays:
# [1] = target: T1, RSV F protein of subtype A (strain A2) on recombinant mKate-RSV (respiratory syncytial virus subtype A …, UniProt P03420 26-574); assay: cell-based or functional assay
# [2] = target: RSV F protein of subtype B (18537) on recombinant mKate-RSV (respiratory syncytial virus subtype B …, UniProt P13843 26-574); assay: cell-based or functional assay
# [3] = target: T2, RSV F ectodomain stabilized in the postfusion conformation (F ΔFP), subtype A (respiratory syncytial virus subtype A, UniProt P03420 26-109; P03420 147-524); assay: BLI (Octet), IgG on AHQ sensor, 100 nM antigen
# T2 construct: extracellular domain; Trimer; also called Postfusion subtype A
# [4] = target: T3, RSV F ectodomain stabilized in the postfusion conformation (F ΔFP), subtype B (respiratory syncytial virus subtype B, UniProt P13843 26-109; P13843 147-524); assay: BLI (Octet), IgG on AHQ sensor, 100 nM antigen
# T3 construct: extracellular domain; Trimer; also called Postfusion subtype B
# [5] = target: T1, RSV F protein of subtype A (strain A2) …; assay: cell-based or functional assay; remark: listed apart in the source
# [6] = target: human metapneumovirus (HMPV) F protein on GFP-expressing hMPV recombinant virus (NL/1/00, A1 sublineage) (human metapneumovirus); assay: cell-based or functional assay
Binder,Neut IC50 subtype A [1],Neut IC50 subtype B [2],Kd [3],Kd [4],RSV-A2 IC50 [5],HMPV-A1 IC50 [6]
B1,0.037 µg/mL,0.129 µg/mL,0.175 nM,0.128 nM,–,–
B2,1.8 µg/mL,6.46 µg/mL,0.167 nM,0.141 nM,–,–
B3,2.55 µg/mL,5.69 µg/mL,–,0.907 nM,2.5 µg/mL,6.1 µg/mL
B4,0.208 µg/mL,0.37 µg/mL,0.969 nM,0.457 nM,–,–
